Test results reported in patent publication US20040214902A1.
No end group written: not given here. *: point of attachment. 6FAM = O=C1OC2(c3ccc(O)cc3Oc3cc(O)ccc32)c2cc(C(=O)*)ccc21

Target: 46-kDa soluble recombinant GST-fused Bcl-2 protein (Santa Cruz Biotechnology) (human) (UniProt P10415)
Assay: fluorescence polarization saturation binding

B1: 25-residue Bad BH3 peptide labeled at the N-terminus with 6-carboxyfluorescein succinimidyl ester (FAM) (peptide)
peptide: 6FAM-NLWAAQRYGRELRRMSDEFVDSFKK
Q: For B1, which Kd is on record?
A: 6.9 nM
